Measured values: paper PMC12261083, “Two DNA-binding One Zinc Finger transcription factors, MdCDOF3 and MdDOF3.6, accelerate leaf senescence by activating cytokinin oxidase MdCKX7 in response to sorbitol signaling in apple”

T1: MdDOF3.6 (Malus domestica, UniProt A0A498JFY8 1-358)
T1 sequence: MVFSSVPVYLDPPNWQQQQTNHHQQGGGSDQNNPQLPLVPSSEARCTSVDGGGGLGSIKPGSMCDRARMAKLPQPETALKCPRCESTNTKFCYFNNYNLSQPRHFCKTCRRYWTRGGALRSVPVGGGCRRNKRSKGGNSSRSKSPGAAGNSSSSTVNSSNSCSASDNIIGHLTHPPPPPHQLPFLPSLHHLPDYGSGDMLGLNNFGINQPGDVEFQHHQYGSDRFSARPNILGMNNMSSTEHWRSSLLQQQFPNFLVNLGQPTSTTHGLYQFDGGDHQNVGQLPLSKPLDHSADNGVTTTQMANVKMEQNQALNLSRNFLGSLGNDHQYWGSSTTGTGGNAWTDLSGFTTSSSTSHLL

B1: MdCKX7 promoter P4 probe (dsDNA)
DNA 1: GATACTATTCACTTTACCCTTTATTCTGTCCTTATC
DNA 2: GATAAGGACAGAATAAAGGGTAAAGTGAATAGTATC
B2: MdCKX7 promoter P4 mutant probe (dsDNA)
DNA 1: GATACTAAAAAAAAAAAAAAAAAAAAAATCCTTATC
DNA 2: GATAAGGATTTTTTTTTTTTTTTTTTTTTTAGTATC

Key:
MdDOF3.6 [1] = molecular target: T1, MdDOF3.6; experiment: EMSA; not stated (EMSA according to cited protocol; biotin-labelled probes, Beyotime kit); conditions: protein: recombinant; tags: His; label: biotin
MdDOF3.6 [2] = molecular target: T1, MdDOF3.6; experiment: EMSA; mutated probe; shift disappeared; not stated (EMSA according to cited protocol; biotin-labelled probes, Beyotime kit); conditions: protein: recombinant; tags: His

Binder | binding result (MdDOF3.6 [1]) | binding result (MdDOF3.6 [2])
B1 | binds | 
B2 |  | no binding
